Data on 3 molecules can be found in patent publication US20180037638A1.

Assay [1] has as its target auto-inducing peptide (AIP) 2 (Staphylococcus aureus). The assay is described as follows: SPR, antibody immobilized on CM5 chip, AIP2 as analyte, 1:1 Langmuir fit. Background: SPR reads the build-up and loss of mass on a sensor chip optically.
The target is the same in assay [2]. The assay is described as follows: cell-based or functional assay.

B1: D3 (antibody, V domains shown)
VH: EVQLVQSGAEVKKPGSSVKVSCKAYGGTFGSYGVSWVRRAPGQGLEWMGRLIPIFGTRDYAQKFQGRVTLTADESTNTAYMELSSLRSEDTAVYYCARDGDYYGSGSYYGMDVWGQGTLVTVSS
VL: SYELTQPPSASGSPGQSVTISCTGTSSDVGGYNYVSWYQQHPGKAPKVMIYEVSKRPSGVSNRFSGSKSGNTASLTISGLQAEDEADYYCSSYTSSSTHVVFGGGTKVTVL
With B1, the Kd – broadly, the free concentration of one partner at which half of the binding sites on the other are occupied at equilibrium, for simple one-to-one binding – in assay [1] was 49 nM.

B2: C7 (antibody, V domains shown)
VH: EVQLVQSGAEMKKPGASMKVSCKTSGYTFARKYMHWLRQAPGQGLEWMGIINPTGGTKSYAPKFQGRVTMTSDMSTNTVYMELNSLRSEDTAVYYCVSDDEEPVWGQGTMVTVSS
VL: QSALTQPPSVSKGLRQTATLTCTGNSNNVGSQGAAWLQQHQGHPPKVLSYRNNNRPSGISERFSASRSGNTASLTITGLQPEDEGDYYCSAWDSSLSAPVFGGGTKLTVL
Turning to B2, in assay [2], the Inhibition of AIP2 QS (IC50; nM), agr-driven YFP reporter strain USA100-AH2619 came to 33.7 nM and the Inhibition of AIP2 QS (IC50; nM), agr-driven YFP reporter strain USA100-AH2625 is 31.2 nM.

B3: E7 (antibody, V domains shown)
VH: EVQLVQSGAEVKKPGASVRVSCKTSGYSFTSYDINWVRQTTGQGLEWMGWVNPTSGSTGYAQKFQGRVTMTANTAINTAYMELRDLRSEDTAVYFCVRDVPFDPWGQGTLVTVSS
VL: LQSVLTQPASVSGSPGQSITISCTGTSSDVGKYTFVSWYQQHPGKAPKVMVYEVNKRPLGVSPRFSGSKSGNTAYLTISGLQAEDEADYYCSSYTSSSTVVFGGGTKLTVL
Take B3: in assay [2], the Inhibition of AIP2 QS (IC50; nM), agr-driven YFP reporter strain USA100-AH2619 was determined as 34.2 nM and the Inhibition of AIP2 QS (IC50; nM), agr-driven YFP reporter strain USA100-AH2625 amounted to 31 nM.
